The text below walks through data of US20240209104A1 (SHANGHAI ACEMAB, published 2024).

Changes are numbered by the printed parent chain.

B1: 30B1-3 (antibody, V domains shown)
VH: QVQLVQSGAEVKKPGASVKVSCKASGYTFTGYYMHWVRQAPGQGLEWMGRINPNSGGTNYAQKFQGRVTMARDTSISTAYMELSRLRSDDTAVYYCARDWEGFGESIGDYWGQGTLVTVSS
VL: EIVLTQSPGTLSLSPGERATFSCRASQSVSGSYLAWYQQKPGQAPRLLIHGASSRATGIPDRFSGSGSGTDFTLTISRLEPEDFAVYYCLQYGSSPLTFGGGTKVEIKR
notes: hybridoma antibody, tested as culture supernatant
B2: 55H6-6 (antibody, V domains shown)
VH: QVQLVQSGAEVKKPGASVKVSCKASGYTFTSYGISWVRQAPGQGLEWMGWISAYNGHTNYAQKLQGRVTMTTDTSTNTAYMELWSLRSDDTAVYYCTSDYGDYWGQGTLVTVSS
VL: DVVVTQSPLSLPVTLGQPASISCRSSQSLVYSDGNTNLYWFQQRPGQSPRRLIYQVSNRDSGVPDRFSGSGSGTDFTLKISRVEAEDVGVYYCMQGTHWPPALTFGGGTEVEIKR
notes: as for B1
B3: 24B9-10 (antibody, V domains shown)
VH: QVQLQESGPGLVKPSGTLSLTCAVSGGSISSSNWWTWVRQPPGKGLEWIGEIYHSGSTNYNPSLKSRVTISVDKSKNQFSLKLSSVTAADTAVYYCARTGPIVTTEYWGQGTLVTVSS
VL: B1 VL with F21L, G31S, S32G, H50Y, S54I, V86L, L90Q
notes: as for B1
B4: 23D1-8 (antibody, V domains shown)
VH: QVQLVQSGAEVKKPGASVKVSCKASGYTFTGYYIHWVRQAPGQGLEWMGRINPNSGGTDFAQKFQARVTMTRDTAINIVYMELSRLRSDDTAVYYCARVVVASYYFDNWGQGTLVTVSS
VL: not shown
notes: as for B1
B5: 38D9-12 (antibody, V domains shown)
VH: QVQLQESGPGLVKPSGTLSLTCAVSGDSISSTNWWSWVRQPPGKGLEWIGEINHNGSTYYNPSLKSRVTISVDKSKNQFSLKLRSVTAADTAVYYCAREDYYYMDVWGKGTTVTVSS
VL: DIQMTQSPSSLSASVGDRVTITCRTSQGIWNDLGWYQQKPGKAPKRLIYAASSLQSGVPSRFSGSESGTEFTLTISSLQPEDFATYYCLQYNNYPLTFGGGTKVEIKR
notes: as for B1
B6: 21D2-3 (antibody, V domains shown)
VH: QVQLVESGGGLVKPGGSLRLSCAASGFTFSDYYMSWIRQAPGKGLEWVSYISSSGTTIYCADSVKGRFTISRDNAKNSLYLQMNSLRAEDTAVYYCARDSSTWYEGNYFDYWGQGTLVTVSS
VL: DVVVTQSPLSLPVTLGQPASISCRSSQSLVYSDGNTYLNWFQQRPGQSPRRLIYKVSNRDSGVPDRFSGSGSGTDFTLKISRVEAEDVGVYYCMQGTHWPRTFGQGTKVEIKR
notes: as for B1
B7: 35B8-6 (antibody, V domains shown)
VH: QITLKESGPTLVKPTQTLTLTCTFSGFSLSTSAVNVGWIRQPHGKALEWLALIFWNDDKRYSPSLKNRLTITKDTSKDQVVLTMSNMDPVDTATYYCAQYNWNSSFDYWGQGTLVTVSS
VL: DIQMTQSPSSLSASLGDRVTITCQASQDINTYLNWYQQKPGKAPKVLIYDASNLETGVPSRFSGSGSGTDFTFTISSLQPEDIATFYCQQYDNLITFGGGTKVEIKR
notes: as for B1
B8: 1F10-12-3 (antibody, V domains shown)
VH: QVQLQESGPGLVKPSGTLSLTCAVSGGSISNSNWWNWVRQPPGRGLEWIGEIYHSGSTNYNPSLKSRVTISVDKSKNQFSLKLTSVTAADTAVYYCARYSTPFFDYWGQGNLVTVSS
VL: DIQMTQSPSSLSASVGDRVTITCRASQSISNYLNWYQQKQGKAPKLLIYGASSLQSGVPSRFSGSGSGTDFTLTINSLQPEDFATYCCQQSYNNPLTFGGGTKVEIKR
notes: as for B1
B9: 14D3-7-3 (antibody, V domains shown)
VH: EVQLVESGGGLVKPGGSLRLSCAASGFTFSNAWMSWVRQAPGKGLEWVGRIKRKTDGGTTDYATPVKGRFTISRDASKNTLYLQMNSLKTEDTAVYYCTSAARRGYFDIWGRGTLVTVSS
VL: EIVLTQSPGTLSLSPGERATLSCRASQSVSSRYLAWYQQKPGQAPRLLIYGASNRATGMPDRFSGSGSGTDFTLTISRLEPEDFAMYYCQQYGSSPITFGQGTRLEIKR
notes: as for B1
B10: 23C4-1-5 (antibody, V domains shown)
VH: QVQLQESGPGLVKPSGTLSLTCAVSGGSISSSNWWSWVRQPPGKGLEWIGEIYHSGSTTYNPSLKSRVTISVDKSKSQISLKLTSVTAADTAVYYCARGDVLLWFGGRGTLVTVSS
VL: B9 VL with T20S, R32N, A44T, N54I, M59I, T75I, M86V, G93S
notes: as for B1
B11: 20G6-7-1 (antibody, V domains shown)
VH: QVQLQESGPGLVKPSGTLSLTCAVSGGSISSSNWWSWVRQPPGKGLEWIGEIYHSGNTNYNPSLKSRVTISVDKSKNQFSLKLSSVTAADTAVYYCARGGTTFDYWGQGTLVTVSS
VL: B9 VL with T5M, S7Y, P15S, T57S, D71E, R78S, L105V
notes: as for B1
B12: 16E4-10-5 (antibody, V domains shown)
VH: B10 VH with A23D, T59N, S77N, I79V, T84N, V101I, R108Q
VL: B9 VL with M86V
notes: as for B1

The first experiment deals with T1, hOX40-EC-His (human, UniProt P43489 29-214).
T1 construct: extracellular domain; bought protein; also called recombinant human OX40 antigen protein; human OX40 extracellular segment antigen; not shown: 6 His label
T1 sequence (looked up): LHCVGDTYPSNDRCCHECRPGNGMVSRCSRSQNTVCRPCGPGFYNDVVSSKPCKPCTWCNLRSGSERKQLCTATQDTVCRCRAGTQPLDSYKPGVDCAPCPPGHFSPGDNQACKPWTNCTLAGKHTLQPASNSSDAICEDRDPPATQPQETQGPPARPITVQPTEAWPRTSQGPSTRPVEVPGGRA
Put plainly: ELISA, supernatant diluted 100 times, coated OX40 (CK60).
As for B1, the “450 nm light absorption” value came to 1.89 OD450.
Same read-out and setting: then B2, with 1.9 OD450; and B3, with 0.574 OD450.
With B4, the “450 nm light absorption” value was found to be 2.02 OD450.
On the same count and under the same terms, to B5 belongs 2.1 OD450; to B6, 1.38 OD450; to B7, 0.215 OD450.

The next experiment has as its target T1, hOX40-EC-His. Briefly: ELISA, supernatant 1:100, coated hOX40-EC-His.
Consider B8, for which the “IgG ELISA (1:100)” value stood at 2.3 OD650.
As for B1, the “IgG ELISA (1:100)” value turned out to be 2 OD650.
As to B2, the “IgG ELISA (1:100)” value was 0.1 OD650.
For B9, the “IgG ELISA (1:100)” value was determined as 2.2 OD650.
As to B10, the “IgG ELISA (1:100)” value was determined as 2.4 OD650.
Consider B3, for which the “IgG ELISA (1:100)” value was found to be 0.2 OD650.
Regarding B4, the “IgG ELISA (1:100)” value was found to be 2.4 OD650.
B5: the “IgG ELISA (1:100)” value is 2.4 OD650.
With B6, the “IgG ELISA (1:100)” value came to 2.1 OD650.
Same read-out and setting: to B7 belongs 2.1 OD650.

The next experiment concerns the target T1, hOX40-EC-His. Briefly: ELISA, supernatant stoste, coated OX40 (CK60).
Take B1: the “450 nm light absorption” value was 2.31 OD450.
B2: the “450 nm light absorption” value was 2.43 OD450.
As for B3, the “450 nm light absorption” value was 2.19 OD450.
As for B4, the “450 nm light absorption” value was 2.48 OD450.
As to B5, the “450 nm light absorption” value is 2.24 OD450.
Still for that read-out and setting: then B6, with 2.03 OD450; and B7, with 1.47 OD450.

For the next experiment, the target named is T1, hOX40-EC-His. Briefly: ELISA, supernatant diluted 50 times, coated OX40 (CK60).
With B8, the “450 nm light absorption” value turned out to be 2.17 OD450.
Turning to B9, the “450 nm light absorption” value was 2.01 OD450.
Turning to B10, the “450 nm light absorption” value worked out at 2.63 OD450.
As to B11, the “450 nm light absorption” value came to 2.21 OD450.
In the case of B12, the “450 nm light absorption” value was 2.53 OD450.

The next experiment has as its target T2, OX40 on OX40 over-expressed cells (UniProt P43489 29-277).
T2 construct: whole, on cells; human implied; also called OX40 expressed on the surface of OX40 expressing cell
T2 sequence (looked up): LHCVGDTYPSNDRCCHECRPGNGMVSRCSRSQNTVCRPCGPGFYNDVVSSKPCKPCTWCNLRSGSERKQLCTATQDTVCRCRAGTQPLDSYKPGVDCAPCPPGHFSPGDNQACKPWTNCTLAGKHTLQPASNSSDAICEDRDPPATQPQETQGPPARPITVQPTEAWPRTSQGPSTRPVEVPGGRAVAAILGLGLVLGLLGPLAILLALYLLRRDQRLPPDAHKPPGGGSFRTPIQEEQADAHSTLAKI
Briefly: flow cytometry, supernatant on OX40 over-expressed cells. How it is done:
After collecting OX40 over-expressed cells by 200G centrifugation, wash them with PBS containing 3% FCS, and then resuspend them in 2.5 ml of PBS containing 3% FCS. […] Finally, the cells were resuspended in […] of PBS containing 3% FCS for detection by flow cytometry.
For the molecule B8, the “Y586 channel PE fluorescence value” came to 170000.
For the molecule B1, the “Y586 channel PE fluorescence value” is 208000.
Turning to B2, the “Y586 channel PE fluorescence value” came out at 479000.
On to B9, for which the “Y586 channel PE fluorescence value” was 274000.
On the same count and under the same terms, then B10, with 63900; and B11, with 352000.
For B12, the “Y586 channel PE fluorescence value” worked out at 377000.
With B3, the “Y586 channel PE fluorescence value” was found to be 313000.
Regarding B4, the “Y586 channel PE fluorescence value” worked out at 166000.
On the same count and under the same terms, to B5 belongs 243000.
Consider B6, for which the “Y586 channel PE fluorescence value” stood at 202000.
As for B7, the “Y586 channel PE fluorescence value” stood at 243000.
